{
  "source": "patent US20240288446",
  "proteins": {"B1": {"name": "Human tissue plasminogen activator (protein)", "chain": "SYQVICRDEKTQMIYQQHQSWLRPVLRSNRVEYCWCNSGRAQCHSVPVKSCSEPRCFNGGTCQQALYFSDFVCQCPEGFAGKCCEIDTRATCYEDQGISYRGTWSTAESGAECTNWNSSALAQKPYSGRRPDAIRLGLGNHNYCRNPDRDSKPWCYVFKAGKYSSEFCSTPACSEGNSDCYFGNGSAYRGTHSLTESGASCLPWNSMILIGKVYTAQNPSAQALGLGKHNYCRNPDGDAKPWCHVLKNRRLTWEYCDVPSCSTCGLRQYSQPQFRIKGGLFADIASHPWQAAIFAKHRRSPGERFLCGGILISSCWILSAAHCFQERFPPHHLTVILGRTYRVVPGEEEQKFEVEKYIVHKEFDDDTYDNDIALLQLKSDSSRCAQESSVVRTVCLPPADLQLPDWTECELSGYGKHEALSPFYSERLKEAHVRLYPSSRCTSQHLLNRTVTDNMLCAGDTRSGGPQANLHDACQGDSGGPLVCLNDGRMTLVGIISWGLGCGQKDVPGVYTKVTNYLDWIRDNMRP"}},
  "target": "T1, Human Glu-plasminogen",
  "T1 chain": "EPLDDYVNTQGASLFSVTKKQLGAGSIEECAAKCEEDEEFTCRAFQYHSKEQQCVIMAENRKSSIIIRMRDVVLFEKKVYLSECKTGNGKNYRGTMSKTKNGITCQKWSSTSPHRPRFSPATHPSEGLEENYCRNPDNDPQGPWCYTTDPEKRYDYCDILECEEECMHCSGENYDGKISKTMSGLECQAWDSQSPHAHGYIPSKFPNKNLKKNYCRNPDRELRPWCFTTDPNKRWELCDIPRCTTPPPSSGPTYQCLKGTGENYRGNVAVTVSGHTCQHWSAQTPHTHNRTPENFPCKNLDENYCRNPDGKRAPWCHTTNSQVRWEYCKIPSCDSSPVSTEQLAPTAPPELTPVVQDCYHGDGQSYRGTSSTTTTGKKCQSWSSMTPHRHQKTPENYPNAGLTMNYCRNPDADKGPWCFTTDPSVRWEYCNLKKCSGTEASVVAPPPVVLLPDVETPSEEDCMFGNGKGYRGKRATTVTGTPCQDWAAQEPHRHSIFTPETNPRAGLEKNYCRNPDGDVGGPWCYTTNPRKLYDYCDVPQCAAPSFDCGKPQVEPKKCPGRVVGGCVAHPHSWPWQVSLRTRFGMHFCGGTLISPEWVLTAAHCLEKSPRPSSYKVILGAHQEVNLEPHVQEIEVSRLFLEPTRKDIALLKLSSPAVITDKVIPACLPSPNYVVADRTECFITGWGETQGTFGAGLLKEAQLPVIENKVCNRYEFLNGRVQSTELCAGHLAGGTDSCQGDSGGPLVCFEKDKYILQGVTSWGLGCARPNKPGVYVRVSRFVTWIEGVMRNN",
  "data": [
    {"protein": "B1", "values": [
      {"measurement": "conversion of plasminogen into plasmin (plasmin-selective chromogenic substrate)", "value": "The time- and concentration-dependent conversion of plasminogen into plasmin at the fibrin-NETs lattice was reduced as compared to fibrin alone"}
    ]}
  ]
}
